Data as given in patent publication US20240209061A1, “FUSION PROTEINS AND USES THEREOF” (Pfizer Inc., priority 2020, published 2024).

Key:
[1] = AC-SINS self-interaction assay; format: physicochemical
Method: Variant CD80-Fc fusion proteins were assessed by measuring non-specific binding using a DNA- and insulin-binding ELISA (Avery et al., MAbs. 2018 February/March; 10(2): 244-255) and for self-interaction in an AC-SINS assay (affinity-capture self-interaction nanoparticle spectroscopy; Liu et al., 2014, mAbs 6:483-92). DNA- and insulin-binding scores were calculated as the signal ratio of the ELISA signal of the CD80-Fc fusion protein at 10 μg/ml to the ELISA signal in the absence of the Fc-fusion protein (buffer only). For the AC-SINS assay, proteins are captured by anti-human Fc antibodies coated on gold nanoparticles. […] The score ranges obtained from these in vitro assays correlate well with in vivo clearance using huFcRn transgenic (Tg32) mouse. Therapeutic proteins with high scores are at high risk for rapid clearance and unfavorable PK and therapeutics that score low are at low risk and favorable PK.

[2] = Thermal stability by Differential Scanning calorimetry (DSC); format: physicochemical
Method: There is a correlation between the thermal stability of a protein with the overall stability of the protein. Enhanced thermal stability often provides improved manufacturability and longer shelf life/stability. Thermal stability of variant CD80-Fc fusion proteins was assessed by Differential Scanning calorimetry (DSC). Variant CD80-Fc fusion proteins were analyzed using a MicroCal VP-DSC instrument. […] Tables 8-10 show the first thermal transition temperature (Tm1) of CD80-Fc fusion proteins and the enhanced thermal stability of variant CD80-Fc fusion proteins compared to CD80-WT-Fc fusion proteins.

[3] = system: peripheral blood mononuclear cells (PBMC); assay: RESTORE cytokine release assay in absence of TCR stimulation; format: cell-based, human; design: IFNγ: unit not given beside the values
Method: The ability of variant CD80-Fc fusion proteins to promote cytokine release in the absence of TCR stimulation was assessed in the RESTORE (RESetting T cells to Original Reactivity) assay (Römer et al, Blood, 2011). Freshly isolated peripheral blood mononuclear cells (PBMC) from whole blood of several healthy donors were cultured for 48 hours at […] within RPMI1640 media supplemented with 10% autologous plasma, 10 mM HEPES, 1× GlutaMAX, 1× PenStrep, beta2-mercaptoethanol, NEAA and sodium pyruvate. Following the 48-hour incubation, PBMC were pelleted and resuspended at a final concentration of 10^6/ml with indicated soluble drug. Treatment was allowed for 48 hours then supernatant was harvested and assessed in IL-2 and IFNγ ELISA according to manufacturer's protocol (BioLegend).
Positive controls included CD28 superagonist anti-CD28 clone TGN1412 as IgG1 and IgG4 isotypes and anti-CD3. […] Values shown are the average of 3 technical replicates. D=Donor.

[4] = system: Renca murine renal carcinoma tumor cells; assay: Renca murine renal carcinoma model; format: in vivo, mouse; details: for % tumor growth inhibition: Day 18; for # IFNγ-producing spots (splenic tumor-reactive T cells): spleen Day 9, average of n = 4 mice
Method: Renca murine renal carcinoma tumor cells (1 million) were subcutaneously implanted in the hind flank of female Balb/c mice. Five days after tumor implantation, PBS vehicle control or variant CD80-Fc fusion proteins were dosed intravenously at 0.3 and 1 mg/kg (on Day 0 and Day 3) or 3 mg/kg (Day 0, Day 3 and Day 6). Tumor volume was determined by caliper measurements obtained in 2 dimensions and calculated as width^2×length/2. Error bars are depicted as ±SEM.
Pharmacodynamic (PD) modulation with variant CD80-Fc fusion proteins was assessed by measuring tumor-reactive T cells in the spleen using IFNγ ELIspot. Single-cell suspensions were generated from dissociated spleens taken at Day 9 after the first dose of CD80-Fc. Splenocytes were incubated with irradiated tumor cells overnight at 37° C., and the number of IFNγ-producing spots were measured using the IFNγ ELIspot Kit (BD Biosciences #551083).
Cytotoxic CD8^+ T cells are responsible for killing cancer cells and the measurement of CD8^+ T cells that have infiltrated tumors commonly correlates with efficacy for immune-oncology therapies. For all in vivo studies, tumors were collected ˜1 week after the first dose and dissociated by mincing, followed by incubation in an enzymatic digestion cocktail and homogenization. The resulting cell suspension was filtered and washed, and single cells were stained with antibodies to CD45, CD8, and a viability dye to detect tumor-infiltrating lymphocytes (TILs) by flow cytometry. Data were acquired on a BD LSRFortessa flow cytometer or a Cytek Aurora spectral flow cytometer. Table 31 and FIG. 18 show the amount of tumor-infiltrating CD8+ T cells expressed as a percentage of total immune cells (CD45+). Each value is the average of n=4 mice per group. Treatment with all variant CD80-Fc fusion proteins led to increase in CD8+ TILs in various tumor models.

[5] = Pharmacokinetics in huFcRn transgenic mice; details: 0.1 mg/kg IV
Method: PK of CD80-Fc fusion proteins was also assessed in transgenic mice expressing the human neonatal Fc receptor (huFcRn) a-chain transgene under the control of its natural human promoter. Female mice were dosed intravenously with CD80-Fc fusion proteins at 0.1 mg/kg, and blood was collected at the timepoints indicated on the graph. Levels of CD80-Fc in mouse plasma were measured as described above.

## CD80-WT-Fc: wild-type human CD80 extracellular domain fused to human IgG1 Fc (C220S) [reference compound]
[1]; Table 6
  AC-SINS Score: 0
[1]; Table 7
  AC-SINS Score: 0
[2]; Glu pH 4.5
  DSC Tm1: 62.78 ± 0.03 °C
[2]; His pH 5.8
  DSC Tm1: 63.40 ± 0.35 °C
[2]; PBS
  DSC Tm1: 59.52 ± 0.07 °C
[2]; Tris pH 7.5
  DSC Tm1: 64.77 ± 0.14 °C
[3]; Table 20, D222, 1 μg/ml
  IFNγ: 4.3
  IL-2: 7.7
[3]; Table 20, D222, 10 μg/ml
  IFNγ: 3.3
  IL-2: 9.3
[3]; Table 20, D281, 1 μg/ml
  IFNγ: 3.0
  IL-2: 3.0
[3]; Table 20, D281, 10 μg/ml
  IFNγ: 3.3
  IL-2: 2.0
[3]; Table 20, D462, 1 μg/ml
  IFNγ: 6.0
  IL-2: 1.7
[3]; Table 20, D462, 10 μg/ml
  IFNγ: 7.3
  IL-2: 2.0
[3]; Table 20, D547, 1 μg/ml
  IFNγ: 4.0
  IL-2: 9.0
[3]; Table 20, D547, 10 μg/ml
  IFNγ: 3.3
  IL-2: 5.3
[3]; Table 21, D132, 1.9 μg/ml
  IL-2: 0.0
[3]; Table 21, D132, 5.6 μg/ml
  IL-2: 0.0
[3]; Table 21, D132, 16.7 μg/ml
  IL-2: 0.3
[3]; Table 21, D149, 1.9 μg/ml
  IL-2: 0.3
[3]; Table 21, D149, 5.6 μg/ml
  IL-2: 4.3
[3]; Table 21, D149, 16.7 μg/ml
  IL-2: 0.0
[3]; Table 21, D149, 50 μg/ml
  IL-2: 0.0
[3]; Table 21, D379, 1.9 μg/ml
  IL-2: 3.3
[3]; Table 21, D379, 50 μg/ml
  IL-2: 0.3
[3]; Table 21, D399, 1.9 μg/ml
  IL-2: 0.0
[3]; Table 21, D399, 5.6 μg/ml
  IL-2: 0.0
[3]; Table 21, D399, 16.7 μg/ml
  IL-2: 0.0
[3]; Table 21, D399, 50 μg/ml
  IL-2: 3.0
[3]; Table 21, D417, 1.9 μg/ml
  IL-2: 5.7
[3]; Table 21, D417, 5.6 μg/ml
  IL-2: 10.7
[3]; Table 21, D417, 16.7 μg/ml
  IL-2: 0.3
[3]; Table 21, D417, 50 μg/ml
  IL-2: 0.3
[3]; Table 21, D518, 1.9 μg/ml
  IL-2: 4.7
[3]; Table 21, D518, 5.6 μg/ml
  IL-2: 4.7
[3]; Table 21, D518, 16.7 μg/ml
  IL-2: 1.3
[3]; Table 21, D518, 50 μg/ml
  IL-2: 2.7
[3]; Table 22, D132, 1.9 μg/ml
  IFNγ: 14.3
[3]; Table 22, D132, 5.6 μg/ml
  IFNγ: 0.0
[3]; Table 22, D132, 16.7 μg/ml
  IFNγ: 0.0
[3]; Table 22, D132, 50 μg/ml
  IFNγ: 12.3
[3]; Table 22, D149, 5.6 μg/ml
  IFNγ: 0.0
[3]; Table 22, D149, 16.7 μg/ml
  IFNγ: 0.0
[3]; Table 22, D149, 50 μg/ml
  IFNγ: 5.7
[3]; Table 22, D379, 1.9 μg/ml
  IFNγ: 0.3
[3]; Table 22, D379, 5.6 μg/ml
  IFNγ: 0.0
[3]; Table 22, D379, 16.7 μg/ml
  IFNγ: 0.0
[3]; Table 22, D379, 50 μg/ml
  IFNγ: 0.0
[3]; Table 22, D399, 1.9 μg/ml
  IFNγ: 0.0
[3]; Table 22, D399, 5.6 μg/ml
  IFNγ: 0.0
[3]; Table 22, D399, 16.7 μg/ml
  IFNγ: 0.0
[3]; Table 22, D399, 50 μg/ml
  IFNγ: 18.3
[3]; Table 22, D417, 1.9 μg/ml
  IFNγ: 0.0
[3]; Table 22, D417, 5.6 μg/ml
  IFNγ: 146.7
[3]; Table 22, D417, 16.7 μg/ml
  IFNγ: 13.3
[3]; Table 22, D417, 50 μg/ml
  IFNγ: 0.0
[3]; Table 22, D518, 1.9 μg/ml
  IFNγ: 0.0
[3]; Table 22, D518, 5.6 μg/ml
  IFNγ: 0.0
[3]; Table 22, D518, 16.7 μg/ml
  IFNγ: 0.0
[3]; Table 22, D518, 50 μg/ml
  IFNγ: 0.0
[4]; 0.3 mg/kg
  Number of tumor-free mice: 5/10
  % tumor growth inhibition: 85.6%
  # IFNγ-producing spots (splenic tumor-reactive T cells): 373.67
[4]; 0.3 mg/kg IV, Day 0 and 3
  Day 18 tumor volume: 199.0 ± 114.0 mm^3
[4]; 1 mg/kg
  Number of tumor-free mice: 5/10
  % tumor growth inhibition: 96.2%
  # IFNγ-producing spots (splenic tumor-reactive T cells): 271.08
[4]; 1 mg/kg IV, Day 0 and 3
  Day 18 tumor volume: 79.6 ± 25.5 mm^3
[4]; 3 mg/kg
  Number of tumor-free mice: 6/7
  % tumor growth inhibition: 93.7%
  # IFNγ-producing spots (splenic tumor-reactive T cells): 288.5
[4]; 3 mg/kg IV, Day 0, 3 and 6
  Day 18 tumor volume: 73.0 ± 69.0 mm^3
[4]; Renca, 3 mg/kg, ~1 week after first dose, n=4
  CD8^+ T cell infiltrates (% CD45): 38.6 % CD45
[5]
  AUC: 97000 ng·h/mL
  CL: 20.2 mL/day/kg
  T1/2: 80 h
  Vdss: 0.087 L/kg
[5]; average of 3 animals
  Cmax: 2000 ng/mL
